We go through 1 molecule from PMC9734383 (2022).

Holding throughout (experiment): BLI
Experiment [1] has as its target H12 HA (recombinant HA of the panel) (influenza A virus (strain  in …)).
The target in experiment [2] is H17 HA (recombinant HA of the panel) (influenza A virus, bat H17N10 (strain …)).
Experiment [3] concerns the target H15 HA (recombinant HA of the panel) (influenza A virus (strain  in …)).
The target in experiment [4] is H6 HA (recombinant HA of the panel) (influenza A virus (strain  in …)).
Experiment [5] addresses H8 HA (recombinant HA of the panel) (influenza A virus (strain  in …)).
Experiment [6] concerns the target H4 HA (recombinant HA of the panel) (influenza A virus (strain  in …)).
Experiment [7] deals with H18 HA (recombinant HA of the panel) (influenza A virus, bat H18N11 (strain …)).
Experiment [8] concerns the target H11 HA (recombinant HA of the panel) (influenza A virus (strain  in …)).
Experiment [9] concerns the target H10 HA (recombinant HA of the panel) (influenza A virus (strain  in …)).
Experiment [10] deals with H14 HA (recombinant HA of the panel) (influenza A virus (strain  in …)).
The target of experiment [11] is H9 HA (recombinant HA of the panel) (influenza A virus (strain  in …)).
Experiment [12] has as its target H5 HA (recombinant HA of the panel) (influenza A virus (strain  in …)).
In experiment [13] the target is H1-HA (A/swine/Guangdong/104/2013) (influenza A virus …).
Experiment [14] concerns the target H3 HA (recombinant HA of the panel) (influenza A virus (strain  in …)).
Experiment [15] addresses H1 HA (recombinant HA of the panel) (influenza A virus (strain  in …)).

For orientation: Kd means the constant that tells how readily two partners part at equilibrium.

Several values for one entry are separate records, joined by “and”; a condition that tells them apart may be missing. Equal entries are not always repeated.

B1: PN-SIA28 Fab (Fab, V domains shown)
VH: QVQLVESGGGVVQPGRSLRLSCAASGFPFSSYGMHWVRQAPGKGLEWVAGVSYDGSYKYYADSVKGRFTISRDSSKSTLYLQMNSLRPEDTAVYYCARPSAIFGIYIILNGLDVWGQGTTVTVSS
VL: EIVLTQSPSSVSASVGDRVTITCRATQGISSWLAWYQQKPGKPPKLLIFGASSLQSGVPSRFSGSGSGTDFTLTISSLQPEDFATYFCQQAHSFPLTFGGGTKVEIK
On to B1, for which the Kd came to 14900 nM in experiment [1]; 208 nM in experiment [2]; 2380 nM in experiment [3]; 66.8 nM in experiment [4]; 36 nM in experiment [5]; 201 nM in [6]. In addition, the Kd was 40.2 nM in experiment [7]; 682 nM in [8]; 1160 nM in experiment [9]; 171 nM in [10]; 34.3 nM in experiment [11]; 6.3 nM and 6.79 nM in [12]. For the same molecule, the results for the Kd in experiment [13], in experiment [14] and in experiment [15] were 0.26 nM, 144 nM and 0.174 nM, respectively.
